Measurements published in patent US20200399358A1 (Sanofi, published 2020).
Blank lines part the entries; values can stand above or below the binder they belong to.

Columns and labels:
human TGF-β1 [1] = target: T1, human TGF-β1 (human, UniProt P01137 279-390); assay: cell-based or functional assay
human TGF-β2 [2] = target: T2, human TGF-β2 (human, UniProt P61812 303-414); assay: cell-based or functional assay
T2 sequence (looked up): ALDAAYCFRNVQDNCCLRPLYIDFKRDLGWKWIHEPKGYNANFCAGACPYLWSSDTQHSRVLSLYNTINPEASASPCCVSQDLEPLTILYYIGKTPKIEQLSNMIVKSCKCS

human TGF-β3 [3] = target: T3, human TGF-β3 (human, UniProt P10600 301-412); assay: cell-based or functional assay
T3 sequence (looked up): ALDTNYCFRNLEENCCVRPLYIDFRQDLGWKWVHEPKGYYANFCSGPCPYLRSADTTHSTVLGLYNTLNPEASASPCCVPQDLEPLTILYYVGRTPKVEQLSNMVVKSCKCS

murine TGF-β1 [4] = target: T4, murine TGF-β1 (mouse, UniProt P04202 279-390); assay: cell-based or functional assay
human TGF-β1 [5] = target: T1, human TGF-β1; assay: cell-based or functional assay; remark: listed apart in the source
murine TGF-β2 [6] = target: T5, murine TGF-β2 (mouse, UniProt P27090 303-414); assay: cell-based or functional assay
T5 sequence (looked up): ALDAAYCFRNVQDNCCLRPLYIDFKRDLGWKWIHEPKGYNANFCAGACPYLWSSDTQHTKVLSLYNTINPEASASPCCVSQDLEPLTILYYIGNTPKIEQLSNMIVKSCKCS

human TGF-β1 [7] = target: T1, human TGF-β1; assay: SPR (Biacore T200), Ab1 injected over immobilized TGF-β homodimer, 1:1 model
Description: (§1) The affinity of Ab1 for all human and murine TGF-β isoforms was determined by surface plasmon resonance on a Biacore T200 Biosensor instrument (GE Healthcare) using a dextran-coated carboxy-methylated (CM5) series S chip. Ab1 at a series of concentrations (1.11, 3.33, 10, and 30 nM) was injected onto immobilized recombinant TGF-β to measure the binding interaction in real time. The TGF-β homodimers were immobilized at a low density to reduce avidity effects. Injections were performed in triplicate and the binding assay was repeated three times. The data from the kinetic experiments were processed using the Biacore T200 Biaevaluation v2.0 software. Resulting sensorgrams were zeroed, aligned, double referenced, and cropped for curve fitting analysis using a 1:1 binding model to determine association rate constant (kₐ), dissociation rate constant (kd), and equilibrium dissociation constant (KD).

human TGF-β2 [8] = target: T2, human TGF-β2; assay: as above
Description: as §1

human TGF-β3 [9] = target: T3, human TGF-β3; assay: as above
Description: as §1

murine TGF-β1 [10] = target: T4, murine TGF-β1; assay: as above
Description: as §1

murine TGF-β2 [11] = target: T5, murine TGF-β2; assay: as above
Description: as §1

T1 sequence (P01137 279-390 limits assumed): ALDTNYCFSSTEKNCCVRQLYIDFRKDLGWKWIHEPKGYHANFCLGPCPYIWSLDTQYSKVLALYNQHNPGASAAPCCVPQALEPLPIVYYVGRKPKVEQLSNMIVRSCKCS
T4 sequence (P04202 279-390 limits assumed): as the sequence (P01137 279-390 limits assumed) above, with A75S counted along it

EC50 (read off the curve); neutralisation, Mv 1 Lu proliferation with 1 ng/ml TGF-β (human TGF-β1 [1]): ~7 µg/mL | EC50 (read off the curve); neutralisation, Mv 1 Lu proliferation with 1 ng/ml TGF-β (human TGF-β2 [2]): ~6 µg/mL | EC50 (read off the curve); neutralisation, Mv 1 Lu proliferation with 1 ng/ml TGF-β (human TGF-β3 [3]): ~0.4 µg/mL | EC50 (read off the curve); neutralisation, Mv 1 Lu proliferation with 1 ng/ml TGF-β (murine TGF-β1 [4]): ~4 µg/mL
B1: 1D11 (antibody, mouse IgG1, kappa, V domains shown)
VH: HVQLQQSGPELVRPGASVKLSCKASGYIFITYWMNWVKQRPGQGLEWIGQIFPASGSTNYNEMFEGKATLTVDTSSSTAYMQLSSLTSEDSAVYYCARGDGNYALDAMDYWGQGTSVTVSS
VL: NIVLTQSPASLAVSLGQRATISCRASESVDSYGNSFMHWYQQKSGQPPKLLIYLASNLESGVPARFSGSGSRTDFTLTIDPVEADDAATYYCQQNNEDPLTFGAGTKLELKR

fold change of luciferase activity against isotype control Ab (639440 RLU) (human TGF-β1 [5]): 1.45 fold | fold change of luciferase activity against no Ab control (638866 RLU) (human TGF-β1 [5]): 1.45 fold | EC50 (read off the curve); neutralisation, Mv 1 Lu proliferation with 1 ng/ml TGF-β (human TGF-β2 [2]): ~4 µg/mL | EC50 (read off the curve); neutralisation, Mv 1 Lu proliferation with 1 ng/ml TGF-β (human TGF-β3 [3]): ~2 µg/mL | EC50 (read off the curve); neutralisation, Mv 1 Lu proliferation with 1 ng/ml TGF-β (murine TGF-β1 [4]): ~0.6 µg/mL | EC50 (read off the curve); neutralisation, Mv 1 Lu proliferation with 1 ng/ml TGF-β (murine TGF-β2 [6]): ~9 µg/mL | Kd (human TGF-β1 [7]): 1.48 nM | koff (human TGF-β1 [7]): 0.000343 s⁻¹ | kon (human TGF-β1 [7]): 311000 M⁻¹ s⁻¹ | Kd (human TGF-β2 [8]): 3 nM | koff (human TGF-β2 [8]): 0.000823 s⁻¹ | kon (human TGF-β2 [8]): 286000 M⁻¹ s⁻¹ | Kd (human TGF-β3 [9]): 1.65 nM | koff (human TGF-β3 [9]): 0.000372 s⁻¹ | kon (human TGF-β3 [9]): 223000 M⁻¹ s⁻¹ | Kd (murine TGF-β1 [10]): 2.8 nM | koff (murine TGF-β1 [10]): 0.000835 s⁻¹ | kon (murine TGF-β1 [10]): 298000 M⁻¹ s⁻¹ | Kd (murine TGF-β2 [11]): 1.88 nM | koff (murine TGF-β2 [11]): 0.000645 s⁻¹ | kon (murine TGF-β2 [11]): 348000 M⁻¹ s⁻¹
B2: Ab1 (antibody, human IgG4 S228P, kappa)
heavy: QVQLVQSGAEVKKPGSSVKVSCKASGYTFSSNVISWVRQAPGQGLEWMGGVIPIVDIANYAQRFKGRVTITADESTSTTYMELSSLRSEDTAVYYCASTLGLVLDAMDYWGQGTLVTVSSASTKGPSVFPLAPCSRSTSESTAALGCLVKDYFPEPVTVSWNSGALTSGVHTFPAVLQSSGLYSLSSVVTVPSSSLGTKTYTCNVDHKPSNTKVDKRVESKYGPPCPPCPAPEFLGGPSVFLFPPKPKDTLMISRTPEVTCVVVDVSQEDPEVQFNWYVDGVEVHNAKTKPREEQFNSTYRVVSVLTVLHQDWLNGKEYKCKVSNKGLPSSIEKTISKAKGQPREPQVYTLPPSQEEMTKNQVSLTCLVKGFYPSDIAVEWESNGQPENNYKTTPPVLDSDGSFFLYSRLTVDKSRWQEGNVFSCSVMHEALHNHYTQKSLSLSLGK
light: ETVLTQSPGTLSLSPGERATLSCRASQSLGSSYLAWYQQKPGQAPRLLIYGASSRAPGIPDRFSGSGSGTDFTLTISRLEPEDFAVYYCQQYADSPITFGQGTRLEIKRTVAAPSVFIFPPSDEQLKSGTASVVCLLNNFYPREAKVQWKVDNALQSGNSQESVTEQDSKDSTYSLSSTLTLSKADYEKHKVYACEVTHQGLSSPVTKSFNRGEC
notes: Human IgG4 with proline at position 228 (EU numbering); also called anti-TGF-β antibody Ab1

EC50 (read off the curve); neutralisation, Mv 1 Lu proliferation with 1 ng/ml TGF-β (human TGF-β2 [2]): ~5 µg/mL | EC50 (read off the curve); neutralisation, Mv 1 Lu proliferation with 1 ng/ml TGF-β (human TGF-β3 [3]): ~2 µg/mL | EC50 (read off the curve); neutralisation, Mv 1 Lu proliferation with 1 ng/ml TGF-β (murine TGF-β1 [4]): ~0.6 µg/mL | EC50 (read off the curve); neutralisation, Mv 1 Lu proliferation with 1 ng/ml TGF-β (murine TGF-β2 [6]): ~9 µg/mL
B3: fresolimumab (antibody, human IgG4, kappa)
heavy: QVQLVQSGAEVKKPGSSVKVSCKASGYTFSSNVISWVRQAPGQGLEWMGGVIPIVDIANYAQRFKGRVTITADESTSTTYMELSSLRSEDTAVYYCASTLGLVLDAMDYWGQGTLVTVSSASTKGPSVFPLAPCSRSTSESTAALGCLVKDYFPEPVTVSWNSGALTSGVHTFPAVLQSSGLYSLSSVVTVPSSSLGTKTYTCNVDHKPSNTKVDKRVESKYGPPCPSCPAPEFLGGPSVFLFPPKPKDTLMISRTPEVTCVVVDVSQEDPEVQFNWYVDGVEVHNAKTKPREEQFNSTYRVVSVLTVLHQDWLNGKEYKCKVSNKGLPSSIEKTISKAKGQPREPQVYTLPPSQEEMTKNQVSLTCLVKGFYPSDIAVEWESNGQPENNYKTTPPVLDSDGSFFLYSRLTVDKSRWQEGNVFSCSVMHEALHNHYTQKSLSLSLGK
light: ETVLTQSPGTLSLSPGERATLSCRASQSLGSSYLAWYQQKPGQAPRLLIYGASSRAPGIPDRFSGSGSGTDFTLTISRLEPEDFAVYYCQQYADSPITFGQGTRLEIKRTVAAPSVFIFPPSDEQLKSGTASVVCLLNNFYPREAKVQWKVDNALQSGNSQESVTEQDSKDSTYSLSSTLTLSKADYEKHKVYACEVTHQGLSSPVTKSFNRGEC
